Test results published in the supplement of paper PMC10567573.

B1: RHOBTB2 (parent)
chain: NQEITKAFHVRRTNRVKECLAKGT

Variants of: B1
Experiment: protein stability index of a GFP-peptide fusion (GPS, HEK-293T) (PSI 1-6); higher = more stable
Conditions: c terminus: a fixed tail appended
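Also: lentivirally expressed fusions sorted by FACS into six bins by GFP to DsRed ratio, PSI derived from sequencing read proportions per bin multiplied by bin number.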

| Variant | protein stability index |
| --- | --- |
| NVEITKAFHVRRTNRVKECLAKGT [Q2V] | 3.5 |
| NGEITKAFHVRRTNRVKECLAKGT [Q2G] | 2.39 |
| NIEITKAFHVRRTNRVKECLAKGT [Q2I] | 2.6 |
| NTEITKAFHVRRTNRVKECLAKGT [Q2T] | 3.74 |
| NWEITKAFHVRRTNRVKECLAKGT [Q2W] | 2.69 |
| NMEITKAFHVRRTNRVKECLAKGT [Q2M] | 3.01 |
| NDEITKAFHVRRTNRVKECLAKGT [Q2D] | 4.2 |
| NREITKAFHVRRTNRVKECLAKGT [Q2R] | 2.83 |
| NEEITKAFHVRRTNRVKECLAKGT [Q2E] | 4.05 |
| NQEITKPFHVRRTNRVKECLAKGT [A7P] | 4.3 |
| NQEITKEFHVRRTNRVKECLAKGT [A7E] | 4.16 |
| NQEITKKFHVRRTNRVKECLAKGT [A7K] | 3.51 |
| NQEITKTFHVRRTNRVKECLAKGT [A7T] | 3.11 |
| NQEITKRFHVRRTNRVKECLAKGT [A7R] | 3.76 |
| NQEITKCFHVRRTNRVKECLAKGT [A7C] | 2.94 |
| NQEITKYFHVRRTNRVKECLAKGT [A7Y] | 2.29 |
| NQEITKNFHVRRTNRVKECLAKGT [A7N] | 3.2 |
| NQEITKDFHVRRTNRVKECLAKGT [A7D] | 3.82 |
| NQEITKWFHVRRTNRVKECLAKGT [A7W] | 3.34 |
| NQEITKLFHVRRTNRVKECLAKGT [A7L] | 2.85 |
| NQEITKHFHVRRTNRVKECLAKGT [A7H] | 2.52 |
| NQEITKMFHVRRTNRVKECLAKGT [A7M] | 2.48 |
| NQEITKVFHVRRTNRVKECLAKGT [A7V] | 1.02 |
| NQEITKQFHVRRTNRVKECLAKGT [A7Q] | 3.5 |

| Variant | protein stability index |
| --- | --- |
| EQEITKAFHVRRTNRVKECLAKGT [N1E] | 4.01 |
| IQEITKAFHVRRTNRVKECLAKGT [N1I] | 1.59 |
| HQEITKAFHVRRTNRVKECLAKGT [N1H] | 2.86 |
| PQEITKAFHVRRTNRVKECLAKGT [N1P] | 4.54 |
| YQEITKAFHVRRTNRVKECLAKGT [N1Y] | 2.26 |
| LQEITKAFHVRRTNRVKECLAKGT [N1L] | 2.31 |
| CQEITKAFHVRRTNRVKECLAKGT [N1C] | 2.25 |
| MQEITKAFHVRRTNRVKECLAKGT [N1M] | 2.66 |
| WQEITKAFHVRRTNRVKECLAKGT [N1W] | 2.45 |
| VQEITKAFHVRRTNRVKECLAKGT [N1V] | 3.07 |
| GQEITKAFHVRRTNRVKECLAKGT [N1G] | 2.88 |
| QQEITKAFHVRRTNRVKECLAKGT [N1Q] | 3.87 |
| TQEITKAFHVRRTNRVKECLAKGT [N1T] | 1.57 |
| AQEITKAFHVRRTNRVKECLAKGT [N1A] | 4.01 |
| FQEITKAFHVRRTNRVKECLAKGT [N1F] | 2.07 |
| SQEITKAFHVRRTNRVKECLAKGT [N1S] | 3.94 |
| KQEITKAFHVRRTNRVKECLAKGT [N1K] | 3.49 |
| NQSITKAFHVRRTNRVKECLAKGT [E3S] | 2.26 |
| NQIITKAFHVRRTNRVKECLAKGT [E3I] | 2.57 |
| NQCITKAFHVRRTNRVKECLAKGT [E3C] | 2.31 |
| NQRITKAFHVRRTNRVKECLAKGT [E3R] | 3.02 |
| NQFITKAFHVRRTNRVKECLAKGT [E3F] | 2.04 |
| NQHITKAFHVRRTNRVKECLAKGT [E3H] | 2.47 |
| NQPITKAFHVRRTNRVKECLAKGT [E3P] | 3.38 |

| Variant | protein stability index |
| --- | --- |
| NQLITKAFHVRRTNRVKECLAKGT [E3L] | 3.66 |
| NQNITKAFHVRRTNRVKECLAKGT [E3N] | 3.38 |
| NQGITKAFHVRRTNRVKECLAKGT [E3G] | 3.15 |
| NQDITKAFHVRRTNRVKECLAKGT [E3D] | 2.63 |
| NQYITKAFHVRRTNRVKECLAKGT [E3Y] | 2.23 |
| NQMITKAFHVRRTNRVKECLAKGT [E3M] | 2.87 |
| NQQITKAFHVRRTNRVKECLAKGT [E3Q] | 2.22 |
| NQVITKAFHVRRTNRVKECLAKGT [E3V] | 2.4 |
| NQKITKAFHVRRTNRVKECLAKGT [E3K] | 3.06 |
| NQWITKAFHVRRTNRVKECLAKGT [E3W] | 3.8 |
| NQEITKAFCVRRTNRVKECLAKGT [H9C] | 2.65 |
| NQEITKAFAVRRTNRVKECLAKGT [H9A] | 2.45 |
| NQEITKAVHVRRTNRVKECLAKGT [F8V] | 4.46 |
| NQEITKAHHVRRTNRVKECLAKGT [F8H] | 4.73 |
| NQEITKARHVRRTNRVKECLAKGT [F8R] | 4.67 |
| NQEITKAPHVRRTNRVKECLAKGT [F8P] | 4.53 |
| NQEITKAMHVRRTNRVKECLAKGT [F8M] | 4.77 |
| NQEITKALHVRRTNRVKECLAKGT [F8L] | 3.77 |
| NQEITKAWHVRRTNRVKECLAKGT [F8W] | 2.94 |
| NQEITKAQHVRRTNRVKECLAKGT [F8Q] | 4.48 |
| NQEITKACHVRRTNRVKECLAKGT [F8C] | 4.96 |
| NQEITKADHVRRTNRVKECLAKGT [F8D] | 4.67 |
| NQEITKAEHVRRTNRVKECLAKGT [F8E] | 4.62 |
| NQEITKAKHVRRTNRVKECLAKGT [F8K] | 4.15 |

| Variant | protein stability index |
| --- | --- |
| NQEITKAAHVRRTNRVKECLAKGT [F8A] | 4.6 |
| NQEITKAYHVRRTNRVKECLAKGT [F8Y] | 3.37 |
| NQEITKAIHVRRTNRVKECLAKGT [F8I] | 4.37 |
| NQEITKANHVRRTNRVKECLAKGT [F8N] | 4.39 |
| NQEITKATHVRRTNRVKECLAKGT [F8T] | 4.5 |
| NQEITKAGHVRRTNRVKECLAKGT [F8G] | 4.63 |
| NQEITKASHVRRTNRVKECLAKGT [F8S] | 4.87 |
| NQEKTKAFHVRRTNRVKECLAKGT [I4K] | 3.75 |
| NQETTKAFHVRRTNRVKECLAKGT [I4T] | 5.01 |
| NQERTKAFHVRRTNRVKECLAKGT [I4R] | 3.72 |
| NQEPTKAFHVRRTNRVKECLAKGT [I4P] | 4.43 |
| NQESTKAFHVRRTNRVKECLAKGT [I4S] | 4.49 |
| NQENTKAFHVRRTNRVKECLAKGT [I4N] | 3.38 |
| NQEGTKAFHVRRTNRVKECLAKGT [I4G] | 4.42 |
| NQEETKAFHVRRTNRVKECLAKGT [I4E] | 4.32 |
| NQEMTKAFHVRRTNRVKECLAKGT [I4M] | 4.25 |
| NQEFTKAFHVRRTNRVKECLAKGT [I4F] | 3.46 |
| NQEDTKAFHVRRTNRVKECLAKGT [I4D] | 4.37 |
| NQEWTKAFHVRRTNRVKECLAKGT [I4W] | 3.21 |
| NQEHTKAFHVRRTNRVKECLAKGT [I4H] | 4.13 |
| NQELTKAFHVRRTNRVKECLAKGT [I4L] | 3.51 |
| NQEATKAFHVRRTNRVKECLAKGT [I4A] | 4.92 |
